In publication PMC3101628 (Nature structural & molecular biology, 2011):
Numbering of substitutions follows the chain as printed. Names may count otherwise. “And” between values parts separate entries of the source, which are not always exact repeats. Identical values can stand only once. Like-named read-outs stand apart in the source and are kept apart here.

Columns and labels:
[1] = target: the molecule itself
SEC [2] = target: the molecule itself; assay: SEC
SEC [3] = target: the molecule itself; assay: SEC; remark: listed apart in the source
SEC [4] = target: the molecule itself; assay: SEC; remark: listed apart in the source
SEC [5] = target: the molecule itself; assay: SEC; remark: listed apart in the source
SEC-MALS = target: the molecule itself; assay: SEC-MALS
SEC [6] = target: the molecule itself; assay: SEC; remark: listed apart in the source
SEC [7] = target: the molecule itself; assay: SEC; remark: listed apart in the source
SEC [8] = target: the molecule itself; assay: SEC; remark: listed apart in the source

B1: ScRR1 D182R (enzyme, S. cerevisiae)
chain: MYVYKRDGRKEPVQFDKITARISRLCYGLDPKHIDAVKVTQRIISGVYEGVTTIELDNLAAETCAYMTTVHPDYATLAARIAISNLHKQTTKQFSKVVEDLYRYVNAATGKPAPMISDDVYNIVMENKDKLNSAIVYDRDFQYSYFGFKTLERSYLLRINGQVAERPQHLIMRVALGIHGRRIEAALETYNLMSLKYFTHASPTLFNAGTPKPQMSSCFLVAMKEDSIEGIYDTLKECALISKTAGGIGLHIHNIRSTGSYIAGTNGTSNGLIPMIRVFNNTARYVDQGGNKRPGAFALYLEPWHADIFDFIDIRKNHGKEEIRARDLFPALWIPDLFMKRVEENGTWTLFSPTSAPGLSDCYGDEFEALYTRYEKEGRGKTIKAQKLWYSILEAQTETGTPFVVYKDACNRKSNQKNLGVIKSSNLCCEIVEYSAPDETAVCNLASVALPAFIETSEDGKTSTYNFKKLHEIAKVVTRNLNRVIDRNYYPVEEARKSNMRHRPIALGVQGLADTFMLLRLPFDSEEARLLNIQIFETIYHASMEASCELAQKDGPYETFQGSPASQGILQFDMWDQKPYGMWDWDTLRKDIMKHGVRNSLTMAPMPTASTSQILGYNECFEPVTSNMYSRRVLSGEFQVVNPYLLRDLVDLGIWDEGMKQYLITQNGSIQGLPNVPQELKDLYKTVWEISQKTIINMAADRSVYIDQSHSLNLFLRAPTMGKLTSMHFYGWKKGLKTGMYYLRTQAASAAIQFTIDQKIADQATENVADISNLKRPSYMPSSASYAASDFVPAAVTANATIPSLDSSSEASREASPAPTGSHSLTKGMAELNVQESKVEVPEVPAPTKNEEKAAPIVDDEETEFDIYNSKVIACAIDNPEACEMCSG
[1]
  stoichiometry N: 6

B2: S. cerevisiae ribonucleotide reductase RR1 (ScRR1), wild type (enzyme)
chain: B1 chain with R182D
SEC [2]
  stoichiometry N: 6

B3: human ribonucleotide reductase RR1 (hRRM1), wild type (enzyme, UniProt P23921 1-792, looked up)
chain: MHVIKRDGRQERVMFDKITSRIQKLCYGLNMDFVDPAQITMKVIQGLYSGVTTVELDTLAAETAATLTTKHPDYAILAARIAVSNLHKETKKVFSDVMEDLYNYINPHNGKHSPMVAKSTLDIVLANKDRLNSAIIYDRDFSYNYFGFKTLERSYLLKINGKVAERPQHMLMRVSVGIHKEDIDAAIETYNLLSERWFTHASPTLFNAGTNRPQLSSCFLLSMKDDSIEGIYDTLKQCALISKSAGGIGVAVSCIRATGSYIAGTNGNSNGLVPMLRVYNNTARYVDQGGNKRPGAFAIYLEPWHLDIFEFLDLKKNTGKEEQRARDLFFALWIPDLFMKRVETNQDWSLMCPNECPGLDEVWGEEFEKLYASYEKQGRVRKVVKAQQLWYAIIESQTETGTPYMLYKDSCNRKSNQQNLGTIKCSNLCTEIVEYTSKDEVAVCNLASLALNMYVTSEHTYDFKKLAEVTKVVVRNLNKIIDINYYPVPEACLSNKRHRPIGIGVQGLADAFILMRYPFESAEAQLLNKQIFETIYYGALEASCDLAKEQGPYETYEGSPVSKGILQYDMWNVTPTDLWDWKVLKEKIAKYGIRNSLLIAPMPTASTAQILGNNESIEPYTSNIYTRRVLSGEFQIVNPHLLKDLTERGLWHEEMKNQIIACNGSIQSIPEIPDDLKQLYKTVWEISQKTVLKMAAERGAFIDQSQSLNIHIAEPNYGKLTSMHFYGWKQGLKTGMYYLRTRPAANPIQFTLNKEKLKDKEKVSKEEEEKERNTAAMVCSLENRDECLMCGS
SEC [3]
  stoichiometry N: 2
SEC [4]
  stoichiometry N: 6

B4: hRRM1 D16R (enzyme, human, UniProt P23921 1-792, looked up)
chain: B3 chain with D16R
SEC [5]
  stoichiometry N: 6
SEC-MALS
  stoichiometry N: 2

B5: hRRM1 H2E (enzyme, human, UniProt P23921 1-792, looked up)
chain: B3 chain with H2E
SEC [4]
  stoichiometry N: 2 and 6

B6: hRRM1 D57N (enzyme, human, UniProt P23921 1-792, looked up)
chain: B3 chain with D57N
SEC [6]
  stoichiometry N: 6
SEC [7]
  stoichiometry N: 2

B7: hRRM1 with the first 74 residues deleted (t-hRRM1) (domain or fragment, human, UniProt P23921 75-792, looked up)
chain: AILAARIAVSNLHKETKKVFSDVMEDLYNYINPHNGKHSPMVAKSTLDIVLANKDRLNSAIIYDRDFSYNYFGFKTLERSYLLKINGKVAERPQHMLMRVSVGIHKEDIDAAIETYNLLSERWFTHASPTLFNAGTNRPQLSSCFLLSMKDDSIEGIYDTLKQCALISKSAGGIGVAVSCIRATGSYIAGTNGNSNGLVPMLRVYNNTARYVDQGGNKRPGAFAIYLEPWHLDIFEFLDLKKNTGKEEQRARDLFFALWIPDLFMKRVETNQDWSLMCPNECPGLDEVWGEEFEKLYASYEKQGRVRKVVKAQQLWYAIIESQTETGTPYMLYKDSCNRKSNQQNLGTIKCSNLCTEIVEYTSKDEVAVCNLASLALNMYVTSEHTYDFKKLAEVTKVVVRNLNKIIDINYYPVPEACLSNKRHRPIGIGVQGLADAFILMRYPFESAEAQLLNKQIFETIYYGALEASCDLAKEQGPYETYEGSPVSKGILQYDMWNVTPTDLWDWKVLKEKIAKYGIRNSLLIAPMPTASTAQILGNNESIEPYTSNIYTRRVLSGEFQIVNPHLLKDLTERGLWHEEMKNQIIACNGSIQSIPEIPDDLKQLYKTVWEISQKTVLKMAAERGAFIDQSQSLNIHIAEPNYGKLTSMHFYGWKQGLKTGMYYLRTRPAANPIQFTLNKEKLKDKEKVSKEEEEKERNTAAMVCSLENRDECLMCGS
SEC [8]
  stoichiometry N: 2
